Measured values published in patent publication US20250009852A1, “DEPLETING EGFR AND HER2 OVERCOMES RESISTANCE TO EGFR INHIBITORS IN COLORECTAL CANCER” (Health Research, Inc., priority 2021, published 2025).

B1: PEPD^G278D: recombinant and enzymatically inactive mutant of human peptidase D (PEPD), with replacement of glycine 278 by aspartic acid (protein)
chain: AAATGPSFWLGNETLKVPLALFALNRQRLCERLRKNPAVQAGSIVVLQGGEETQRYCTDTGVLFLQESFFHWAFGVTEPGCYGVIDVDTGKSTLFVPRLPASHATWMGKIHSKEHFKEKYAVDDVQYVDEIASVLTSQKPSVLLTLRGVNTDSGSVCREASFDGISKFEVNNTILHPEIVESRVFKTDMELEVLRYTNKISSEAHREVMKAVKVGMKEYGLESLFEHYCYSRGGMRHSSYTCICGSGENSAVLHYGHAGAPNDRTIQNGDMCLFDMDGEYYSVASDITCSFPRNGKFTADQKAVYEAVLLSSRAVMGAMKPGDWWPDIDRLADRIHLEELAHMGILSGSVDAMVQAHLGAVFMPHGLGHFLGIDVHDVGGYPEGVERIDEPGLRSLRTARHLQPGMVLTVEPGIYFIDHLLDEALADPARASFLNREVLQRFRGFGGVRIEEDVVVIDSGIELLTCVPRTVEEIEACMAGCDKAFTPFSGPK
modifications: left off: small tags and cut ends

How the values were obtained:
[1] = system: HCT116 tumors; assay: Subcutaneous HCT116 tumors in SCID mice; type: in vivo, mouse; conditions: sc HCT116 tumors
Description: SCID mice (C.B.17 SCID) were bred by the Laboratory Animal Shared Resource at Roswell Park Comprehensive Cancer Center. Male mice at 7-8 weeks of age were used. All mouse experiments were approved by the Institutional Animal Care and Use Committee at Roswell Park Comprehensive Cancer Center under protocol 1022M. We established subcutaneous tumors by inoculating 1×10^6 HCT116 cells, 4×10^6 HT29 cells, or 2×10^6 SW48 cells to the flank of each mouse in 100 μl of serum free medium. Colon patient-derived xenograft (PDX) 14650 was established from a liver metastatic lesion in a patient treated at Roswell Park Comprehensive Cancer Center. Tumor fragments (˜20 mm^3) from donor mice were implanted into the flank of each mouse subcutaneously using a trocar. Orthotopic colon tumors in mice were established by inoculating HCT116 cells stably transfected with firefly luciferase (2×10^6 cells in 50 μl of 50% serum-free medium and 50% Matrigel) to the caecum wall of each mouse. Mice in each tumor model were randomized cage-wise into treatment groups using Research Randomizer (www.randomizer.org). Subcutaneous tumor volume was measured using length ×width^2÷2. Tumor volume was measured three times each week. Orthotopic tumor growth was monitored by bioluminescence weekly. Mice were given D-luciferin (150 mg/kg) by ip and anesthetized with isoflurane, and tumor burden was measured by bioluminescence using the IVIS Spectrum In Vivo Imaging System (PerkinElmer). Drug treatment was started when significant tumor growth was detected. EP (0.5 mg/kg) was administered to mice ip once daily. […] Aderbasib (60 mg/kg) was administered to mice by gavage once daily. 5-FU (35 mg/kg) was administered to mice ip twice weekly (Monday and Thursday). EP, PEPD^G278D and 5-FU were administered to mice in PBS. Aderbasib was first dissolved in DMSO and then diluted by PBS (final 5% DMSO by volume). Each agent was administered to mice at 0.1 ml volume per 20 g body weight. When a mouse was given multiple agents on the same day, the agents were dosed at approximately 30 min intervals. The mice were closely monitored for sign of adverse effects and weighed three times each week. Mice were sacrificed 24-48 hours after the last treatment, at which point the tumors were promptly removed, snap frozen and stored at −80° C. for later analysis. Some tumors were fixed in 10% buffered formalin, paraffin embedded, cut at 4 μm, and stained with hematoxylin and eosin (H & E) for histological analysis.

[2] = system: HER3, MET, IGF1R, SRC, AKT, ERK, MEK; assay: Western blotting of whole cell lysates: other RTKs and downstream signaling proteins; type: cell-based, human; conditions: 25 nM, 48 h
Description: (§1) To prepare whole cell lysates, cells were washed with PBS twice, mixed with 1× cell lysis buffer from Cell Signaling Technology supplemented with 2 mM PMSF and a protease inhibitor cocktail from Roche Applied Science, placed on ice for 10 min, sonicated at 0-4° C. to enhance cell lysis using a Branson Model 450 sonifier, and finally centrifuged at 13,000 g for 10 min at 4° C., and the supernatant fraction is collected as whole cell lysate. Tumor and samples were mixed with RIPA buffer (25 mM Tris-HCl, PH7.6, 150 mM NaCl, 1% Nonidet P-40, 1% sodium deoxycholate, and 0.1% SDS), which was supplemented with 2 mM PMSF, the protease inhibitor cocktail mentioned above, phosphatase inhibitor cocktail 2 and phosphatase inhibitor cocktail 3 from Sigma-Aldrich at 14.3 μl buffer per mg tissue, and homogenized in a Dounce homogenizer. The homogenates were cleared by centrifugation at 13,000 g for 15 min at 4° C.
Protein concentrations in all samples were measured using the BCA Assay Kit. For Western blotting, each sample was mixed with 4× loading dye, heated for 5 min at 95° C., and resolved by SDS-PAGE (8-12.5%). Proteins were transferred to polyvinylidene fluoride membrane, probed with specific antibodies, and detected using either Luminata Classico (Millipore) or Luminata Cresendo (Millipore). For IP, cell lysates (0.5 mg protein/sample) were incubated with a desired antibody overnight at 4° C., followed by incubation of 500 μl sample with 30 μl G-Sepharose beads (2 mg/ml) for 1 h at RT. The beads were washed three times with IP buffer, suspended in 2× SDS loading buffer, boiled for 5 min, and analyzed by Western blotting.

[3] = system: HRAS, NRAS, KRAS; assay: Western blotting of whole cell lysates: RAS proteins; type: cell-based, human; conditions: 48 h
Description: as §1
Protein concentrations in all samples were measured using the BCA Assay Kit. […] Proteins were transferred to polyvinylidene fluoride membrane, probed with specific antibodies, and detected using either Luminata Classico (Millipore) or Luminata Cresendo (Millipore). […] The beads were washed three times with IP buffer, suspended in 2× SDS loading buffer, boiled for 5 min, and analyzed by Western blotting.

[4] = system: PI3K; assay: PI3K activity assay (PI3-Kinase Activity ELISA) in cell lysates; type: cell-based, human; conditions: 25 nM, 48 h
Description: PI3K activity was measured using a PI3-Kinase Activity ELISA Kit from Echelon Biosciences, following manufacturer's instruction. Briefly, PI3K was pulled down from whole cell lysates using an antibody for PI3K/p85. Each sample was prepared from approximately 1×10^6 cells. The entire immunoprecipitate from each sample was mixed with 30 μl of KBZ reaction buffer, which was then mixed with 30 μl of 10 μM PI(4,5)P2 substrate and incubated for 2 h at 37° C. The kinase reaction was terminated by adding 90 μl of kinase stop solution to each reaction solution, and 60 μl of each mixture was transferred together with 60 μl of PIP3 detector to a well in the incubation plate. After incubation at RT for 1 h, 100 μl per sample from the incubation plate was transferred to the detection plate and incubated for 1 h at RT. The detection plate was washed with TBST, incubated with the HRP-conjugated secondary detector for 30 min, washed again with TBST, and the immobilized HRP was measured by a standard colorimetric assay, using 3,3′,5,5′-tetramethylbenzedine as a substrate and a Synergy 2 Multi-Mode Microplate Reader to record absorbance.

Row | Molecule | tumor growth ([1]; aderbasib alone 60 mg/kg by gavage daily) | tumor growth ([1]; EP plus PEPD^G278D 4 mg/kg ip three times weekly, or cetuximab 15 mg/kg ip twice weekly) | tumor growth ([1]; EP plus PEPD^G278D 8 mg/kg ip thrice weekly) | expression of other signaling proteins (HER3, MET, IGF1R, SRC, AKT, ERK) ([2]; HCT116, HT29 and SW48 cells) | phosphorylation of other signaling proteins (HER3, MET, IGF1R, SRC, AKT, ERK) ([2]; HCT116, HT29 and SW48 cells) | MEK phosphorylation ([2]; HCT116 and HT29 cells) | phosphorylation or expression of HER3, MET, IGF1R, SRC, AKT, and ERK ([2]; SW620 cells that lack EGFR and HER2) | expression of HRAS and NRAS ([3]; HCT116, HT29 and SW48 cells, 25 nM) | expression of WT or mutated KRAS ([3]; PEPD^G278D 25 nM, cetuximab 275 nM) | inhibition of PI3K activity ([4]; HCT116 cells) | inhibition of PI3K activity ([4]; HT29 cells) | inhibition of PI3K activity ([4]; SW48 cells) | inhibition of PI3K activity ([4]; SW620 cells)
1 | COC(=O)N1CC2(CC2)C[C@H](C(=O)NO)[C@H]1C(=O)N1CC=C(c2ccccc2)CC1 [aderbasib] | ineffective |  |  |  |  |  |  |  |  |  |  |  | 
2 | B1 |  | neither agent inhibited the growth | did not inhibit tumor growth | had no effect on the expression | markedly decreased their phosphorylation | markedly decreased MEK phosphorylation | had no effect | strongly downregulates | neither PEPD^G278D nor cetuximab regulated the expression | 74% | 71% | 76% | not in SW620 cells
